Data as given in US20250242062A1 (VANDERBILT UNIVERSITY, published 2025).

What was measured:
[1] = target: T1, murine COX-2 (mCOX-2) enzyme (murine, UniProt Q05769 18-604); experiment: microscale thermophoresis (MST), apo mCOX-2; apo mCOX-2 as target
T1 construct: also called apo mCOX-2; mouse COX-2
T1 sequence (looked up): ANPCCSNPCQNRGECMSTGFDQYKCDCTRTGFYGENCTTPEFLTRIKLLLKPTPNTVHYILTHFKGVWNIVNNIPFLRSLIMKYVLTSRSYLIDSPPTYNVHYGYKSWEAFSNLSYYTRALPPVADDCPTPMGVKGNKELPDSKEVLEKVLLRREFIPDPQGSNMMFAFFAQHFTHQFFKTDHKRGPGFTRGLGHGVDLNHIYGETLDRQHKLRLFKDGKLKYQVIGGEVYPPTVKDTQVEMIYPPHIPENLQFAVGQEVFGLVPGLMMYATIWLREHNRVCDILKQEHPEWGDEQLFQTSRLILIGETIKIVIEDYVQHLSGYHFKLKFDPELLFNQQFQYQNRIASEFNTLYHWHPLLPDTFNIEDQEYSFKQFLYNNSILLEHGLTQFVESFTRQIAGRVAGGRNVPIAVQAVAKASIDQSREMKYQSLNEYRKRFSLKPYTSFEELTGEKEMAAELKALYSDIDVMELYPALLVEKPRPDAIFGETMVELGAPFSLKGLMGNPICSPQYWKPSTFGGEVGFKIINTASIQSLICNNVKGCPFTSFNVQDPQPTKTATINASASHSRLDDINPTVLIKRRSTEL
Method: The dissociation constant of A7 and F9 nanobodies while bound to apo mCOX-2 was evaluated by a microscale thermophoresis (MST) assay (Bartoschik, T, et al. Sci Rep 2018 8:4977). […] Further, the COX-2 inhibitory activity of A7 and F9 nanobodies was evaluated in the production of prostaglandin E2 (PGE2) and prostaglandin D2 (PGD2) using arachidonic acid (AA) as a substrate. In this assay, purified mouse COX-2 expressed in baculovirus-infected Sf9 cells was used. Purified COX-2 was incubated with varying concentrations of test nanobodies followed by the addition of hematin and AA, respectively. The PGE2 and PGD2 products in the reaction was quantified by a tandem liquid chromatography mass spectroscopy (LC-MS/MS) analysis.

[2] = target: T1, murine COX-2 (mCOX-2) enzyme; experiment: cell-based or functional assay

Kd [1]: 2.4 nM | IC50, inhibition of PGE2 and PGD2 production from arachidonic acid by purified mouse COX-2 (LC-MS/MS) [2]: 6.8 nM
B1: A7 nanobody (VHH)
VHH: QVQLQESGGGLVQPGGSLKLSCAASGSIFSINVMGWYRQAPGKQRELVATITSGGTTNYADSVKGRFTISRDNAKDTLYLQMNSLKPEDTAVYYCNAKDLGGSSWFSEFDYWGQGTQVTVGP
notes: Alpaca-derived VHH expressed in E. coli and purified by SEC; The stated molecular weight is 15.24 kDa; also called native A7 nanobody clone
